Data on one variant can be found in IntAct's records for PubMed 23468591.

B1: IkB-like protein (African swine fever virus (isolate Tick/Malawi/Lil 20-1/1983)), O36972 (parent)
chain: MDTIGLFSVEAEHLFVEWVKKCIKKGDLTLFETLFNADPWIVNRCNKNKITVFMLICIYGRLDFLRFLFKQESYPGEIVNHYRRDKDGNSAWHYLAEKNNHLLLEEVLDYFGKNGIRVCFPNFNGVTPIMKAAMRGRTLSVLSLLKYGANPNRKDYLKGFTTWDWAVFTGHADLVKTLNKGYQKPLFMHFPLYKLDVFHRRFKKKPKIIITGCEDNVYEKLPEQNSNFLCVKKLNKYGK

In this test the parent is B1. The following applies: with PPP3CA.
For F228A;L229A;V231A;K232A, the “effect of a mutation on the interaction” value was “disrupting interaction strength”.
